Measured values published in US9284543B2, “Neutral active soluble truncated PH20 polypeptides and uses thereof” (Halozyme, Inc., priority 2008, dated 2016).
Each block holds one molecule with its values, some of them ahead of it.

Columns and labels:
[1] = Effect of glycosidase treatment on rHuPH20 hyaluronidase activity; format: biochemical; design: unit not given here
Experimental: (§1) In short, a 4×BH 96-well plate was coated with biotinylated-HA (1.1 MDa). The 72 hour post transfection supernatant from cells transfected with human PH20 hyaluronidase carboxy-terminus deletion mutants was diluted in buffer at either pH 7.4 or pH 5.5 and added to individual wells of the plate and allowed to incubate at 37° C. for 90 minutes. The reaction was terminated by addition of 4M guanidine HCl. The wells were washed 4× with Phosphate Buffered Saline with Tween20 (PBST) to remove any digested biotinylated-HA followed by addition of streptavidin-HRP for 1 hour at room temperature. The wells were washed 4× with PBST and the plate was developed with TMB. The plate was read at 450 nm using an ELISA plate reader. Hyaluronidase activity (in Units/mL) was determined by interpolating the measured absorbance at 450 nm with a hyaluronidase reference standard curve. Full length mature human PH20 hyaluronidase and untransfected CHO cells were used as positive and negative controls.
Human PH20 hyaluronidase is glycosylated at six different asparagine residues, including N82, N166, N235, N254, N368, and N393. Five glycosidases were used to generate deglycosylated human PH20 hyaluronidase, including: PNGaseF (New England Biolabs, Cat. No. P0704S, Lot #34), which cleaves all N-glycans; EndoF1, which cleaves high mannose and hybrid type glycans; EndoF2, which cleaves biantennary complex type glycans; EndoF3, which cleaves biantennary and more branched complex glycans; and EndoH (New England Biolabs, Cat. No. P0702S), which cleaves high mannose and hybrid type glycans. Therefore, treatment with PNGaseF results in complete deglycosylation whereas treatment with endoglycosidases results in only partial deglycosylation.
For complete deglycosylation, purified rHuPH20 (0.1 mg/mL final concentration) was incubated with PNGaseF (50,000 units/mL) in 50 mM phosphate buffer pH 7.2 overnight at 37° C. For partial deglycosylation, purified rHuPH20 (0.5 mg/mL final concentration) was incubated with 0.3 units/mL of endoglycosidase (either EndoF1, EndoF2, EndoF3 or EndoH) or a mixture all four endoglycosidases in 50 mM sodium acetate buffer pH 5.0 overnight at 35° C. Deglycosylation of rHuPH20 was analyzed by the shift in the mobility of PH20 by SDS-PAGE. Hyaluronidase enzymatic activity was determined as described in Example 5.

[2] = bHA enzymatic assay of PH20 transiently expressed in lectin resistant CHO mutants; format: biochemical; settings: pH5.5; for PH20 Activity (1:27): 1:27 dilution; for PH20 Activity (1:81): 1:81 dilution
Experimental: as §1
The resulting cell culture media was analyzed by Western blot analysis and hyaluronidase activity was measured using the biotinylated HA enzymatic assay (as described in Examples 3 and 5 above).

[3] = Hyaluronidase activity of N-glycan site specific deglycosylation mutants (biotinylated-HA assay); format: biochemical; settings: media of transfected CHO-S cells
Experimental: as §1
PH20sHis (SEQ ID NO:210) was used as a template for mutagenesis of each asparagine residue to alanine using QuikChange® Site-Directed Mutagenesis Kit (Cat No. 200518, Stratagene). […] Six single mutants were generated, one for each of the N-glycosylation sites. Additionally, three double mutants and a triple mutant were generated for asparagines N82, N166 and N254, all of which are occupied by complex type glycans. Finally, a double mutant N368A/N393A was generated, lacking high mannose glycans. The mutants were transfected into CHO—S cells and expression was performed as described in Example 2A. Secretion into the media and hyaluronidase activity were determined as described in Examples 3 and 5, above.

CHO-S cells [4] = test: Western blot analysis of PH20 expression in media and cells after transient expression; format: cell-based, Chinese Hamster; settings: media versus cells
In short: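 CHO-S cells were transiently transfected with mutant PH20-HZ24 plasmids using GeneJuice and expressed for 48-72 h at 37 °C, 5% CO2. Media and cells were harvested separately, with PI-PLC treatment used to release GPI-anchored protein. Non-reduced samples were blotted with rabbit anti-PH20 (0.5 μg/mL), and a band near 66 kDa was scored as PH20.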

CHO-S cells [5] = test: PI-PLC treatment of expressing cells, Western blot of media and cells; format: cell-based, Chinese Hamster; settings: cells incubated with PI-PLC for 2 hours
In short: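 CHO-S cells transiently expressing rHuPH20 or C-terminal truncation mutants were treated with PI-PLC (0.5 units/well, or 3.0 units/dish in serum/detergent-free medium) for 2 h at 37 °C after 48–72 h expression. Untreated and treated media and cell extracts were analysed separately by Western blot for PH20.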

[6] = Triton X-114 partition assay; format: physicochemical; settings: partition into aqueous phase of Triton X-114 at 37° C.
[7] = Microtiter hyaluronidase activity assay with biotinylated-hyaluronic acid; format: biochemical; settings: 72 hour post transfection supernatant

rHuPH20 activity after glycosidase treatment (assay readout) ([1]; rHuPH20 0.0080 U/ml): 1.9172
rHuPH20 activity after glycosidase treatment (assay readout) ([1]; rHuPH20 0.0400 U/ml): 1.9926
rHuPH20 activity after glycosidase treatment (assay readout) ([1]; rHuPH20 0.2000 U/ml): 1.9173
rHuPH20 activity after glycosidase treatment (assay readout) ([1]; rHuPH20 1.0000 U/ml): 1.9315
B1: PNGaseF: purified rHuPH20 incubated with PNGaseF (complete deglycosylation) (protein, listed as Homo sapiens)
chain: LNFRAPPVIPNVPFLWAWNAPSEFCLGKFDEPLDMSLFSFIGSPRINATGQGVTIFYVDRLGYYPYIDSITGVTVNGGIPQKISLQDHLDKAKKDITFYMPVDNLGMAVIDWEEWRPTWARNWKPKDVYKNRSIELVQQQNVQLSLTEATEKAKQEFEKAGKDFLVETIKLGKLLRPNHLWGYYLFPDCYNHHYKKPGYNGSCFNVEIKRNDDLSWLWNESTALYPSIYLNTQQSPVAATLYVRNRVREAIRVSKIPDAKSPLPVFAYTRIVFTDQVLKFLSQDELVYTFGETVALGASGIVIWGTLSIMRSMKSCLLLDNYMETILNPYIINVTLAAKMCSQVLCQEQGVCIRKNWNSSDYLHLNPDNFAIQLEKGGKFTVRGKPTLEDLEQFSEKFYCSCYSTLSCKEKADVKDTDAVDVCIADGVCIDAFLKPPMETEEPQIFY
modifications: N-glycans removed by PNGaseF; soluble rHuPH20 36-482

B2: HZ24-mut(B/S): plasmid encoding PH20 truncated at amino acid 482, SEQ ID NO:122 (protein, listed as Homo sapiens)
chain: B1 chain
modifications: soluble rHuPH20 36-482
PH20 Activity (1:27) ([2]; expressed in Pro-5 cells): 0.6615 U/mL
PH20 Activity (1:81) ([2]; expressed in Pro-5 cells): 1.1745 U/mL

Activity pH 5.5 ([3]; pH 5.5): YES
Activity pH 7.4 ([3]; pH 7.4): YES
B3: HZ24-PH20sHis: his-tagged PH20 (SEQ ID NO:187), human PH20 clone with HexaHis tag after amino acid S490 (protein)
chain: MGVLKFKHIFFRSFVKSSGVSQIVFTFLLIPCCLTLNFRAPPVIPNVPFLWAWNAPSEFCLGKFDEPLDMSLFSFIGSPRINATGQGVTIFYVDRLGYYPYIDSITGVTVNGGIPQKISLQDHLDKAKKDITFYMPVDNLGMAVIDWEEWRPTWARNWKPKDVYKNRSIELVQQQNVQLSLTEATEKAKQEFEKAGKDFLVETIKLGKLLRPNHLWGYYLFPDCYNHHYKKPGYNGSCFNVEIKRNDDLSWLWNESTALYPSIYLNTQQSPVAATLYVRNRVREAIRVSKIPDAKSPLPVFAYTRIVFTDQVLKFLSQDELVYTFGETVALGASGIVIWGTLSIMRSMKSCLLLDNYMETILNPYIINVTLAAKMCSQVLCQEQGVCIRKNWNSSDYLHLNPDNFAIQLEKGGKFTVRGKPTLEDLEQFSEKFYCSCYSTLSCKEKADVKDTDAVDVCIADGVCIDAFLKPPMETEEPQIFYNASPSTLSHHHHHH
modifications: His6 tag; PH20sHis
PH20 Activity (1:27) ([2]; expressed in Lec1 cells): 0.54 U/mL
PH20 Activity (1:81) ([2]; expressed in Lec1 cells): 0.7695 U/mL
PH20 Activity (1:27) ([2]; expressed in Lec2 cells): 0.675 U/mL
PH20 Activity (1:81) ([2]; expressed in Lec2 cells): 1.053 U/mL
PH20 Activity (1:27) ([2]; expressed in Lec8 cells): 0.2565 U/mL
PH20 Activity (1:81) ([2]; expressed in Lec8 cells): 0.567 U/mL
PH20 Activity (1:27) ([2]; expressed in Pro-5 cells): 0.297 U/mL
PH20 Activity (1:81) ([2]; expressed in Pro-5 cells): 0.6075 U/mL

pH 5.5 Activity ([7]; Table 6): 1.089 Units/ml
pH 7.4 Activity ([7]; Table 6): 1.557 Units/ml
pH 5.5 Activity ([7]; Table 6A): 3.321 Units/ml
pH 7.4 Activity ([7]; Table 6A): 1.985 Units/ml
B4: SPAM1-PSTL: C-terminally truncated human PH20, precursor 489 aa (SEQ ID NO:12), mature 454 aa (SEQ ID NO:64) (protein, listed as Homo sapiens)
chain 1: MGVLKFKHIFFRSFVKSSGVSQIVFTFLLIPCCLTLNFRAPPVIPNVPFLWAWNAPSEFCLGKFDEPLDMSLFSFIGSPRINATGQGVTIFYVDRLGYYPYIDSITGVTVNGGIPQKISLQDHLDKAKKDITFYMPVDNLGMAVIDWEEWRPTWARNWKPKDVYKNRSIELVQQQNVQLSLTEATEKAKQEFEKAGKDFLVETIKLGKLLRPNHLWGYYLFPDCYNHHYKKPGYNGSCFNVEIKRNDDLSWLWNESTALYPSIYLNTQQSPVAATLYVRNRVREAIRVSKIPDAKSPLPVFAYTRIVFTDQVLKFLSQDELVYTFGETVALGASGIVIWGTLSIMRSMKSCLLLDNYMETILNPYIINVTLAAKMCSQVLCQEQGVCIRKNWNSSDYLHLNPDNFAIQLEKGGKFTVRGKPTLEDLEQFSEKFYCSCYSTLSCKEKADVKDTDAVDVCIADGVCIDAFLKPPMETEEPQIFYNASPSTL
chain 2: LNFRAPPVIPNVPFLWAWNAPSEFCLGKFDEPLDMSLFSFIGSPRINATGQGVTIFYVDRLGYYPYIDSITGVTVNGGIPQKISLQDHLDKAKKDITFYMPVDNLGMAVIDWEEWRPTWARNWKPKDVYKNRSIELVQQQNVQLSLTEATEKAKQEFEKAGKDFLVETIKLGKLLRPNHLWGYYLFPDCYNHHYKKPGYNGSCFNVEIKRNDDLSWLWNESTALYPSIYLNTQQSPVAATLYVRNRVREAIRVSKIPDAKSPLPVFAYTRIVFTDQVLKFLSQDELVYTFGETVALGASGIVIWGTLSIMRSMKSCLLLDNYMETILNPYIINVTLAAKMCSQVLCQEQGVCIRKNWNSSDYLHLNPDNFAIQLEKGGKFTVRGKPTLEDLEQFSEKFYCSCYSTLSCKEKADVKDTDAVDVCIADGVCIDAFLKPPMETEEPQIFYNASPSTL
modifications: HuPH20 precursor 1-489; mature HuPH20 36-489
Expressed in Media (CHO-S cells [4]): YES
Expressed in Media Following Addition of PI-PLC (CHO-S cells [5]): Initially in media
Soluble [6]: YES
